# According to the supplement of paper PMC7125110:
# ± gives the standard error. Variants at the floor of the assay were thinned out.
# B1: glmS ribozyme (parent)
# chain: AUAAAAGCGCCAGAACUACAGAAAUGUAGUUGACGAGGAGGAGGUUUAUCGAAUUUUCGGCGGAUGCCUCCAAA
# Tests used:
# Conditions in all cases: with glucosamine-6-phosphate
# glucosamine-6-phosphate [1] = variants of: B1; assay: self-cleavage kobs at 40 uM GlcN6P; higher = faster cleavage; RNA array
# Outline: (§1)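 A hybridised Cy3 probe tracked barcoded ribozyme variants, transcribed in situ by E. coli RNA polymerase on sequenced MiSeq chips, at 37 °C. The variants received 40 μM to 10 mM glucosamine-6-phosphate in HEPES/KCl/Mg(OAc)2 buffer. kobs came from decay fits and kcat and KM from weighted Michaelis–Menten fits.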
# glucosamine-6-phosphate [2] = variants of: B1; assay: self-cleavage kobs at 10000 uM GlcN6P; higher = faster cleavage; RNA array
# Outline: as §1
# glucosamine-6-phosphate [3] = variants of: B1; assay: self-cleavage kobs at 160 uM GlcN6P; higher = faster cleavage; RNA array
# Outline: as §1
# glucosamine-6-phosphate [4] = variants of: B1; assay: self-cleavage kobs at 640 uM GlcN6P; higher = faster cleavage; RNA array
# Outline: as §1
# glucosamine-6-phosphate [5] = variants of: B1; assay: self-cleavage kobs at 2500 uM GlcN6P; higher = faster cleavage; RNA array
# Outline: as §1
Variant,self-cleavage kobs at 40 uM GlcN6P (glucosamine-6-phosphate [1]) [s⁻¹],self-cleavage kobs at 10000 uM GlcN6P (glucosamine-6-phosphate [2]) [s⁻¹],self-cleavage kobs at 160 uM GlcN6P (glucosamine-6-phosphate [3]) [s⁻¹],self-cleavage kobs at 640 uM GlcN6P (glucosamine-6-phosphate [4]) [s⁻¹],self-cleavage kobs at 2500 uM GlcN6P (glucosamine-6-phosphate [5]) [s⁻¹]
C16G G40A A64C,< 1e-05,< 1e-05,,,
C16A U49C C71G,< 1e-05,< 1e-05,,,
G29A A48G,< 1e-05,,< 1e-05,< 1e-05,
C16U C70U,0.00111 ± 0.00017,0.00694 ± 0.0028,0.000974 ± 0.0002,0.00284 ± 0.0011,0.00209 ± 0.0004
A18C,0.00108 ± 0.0003,,0.00647 ± 0.0023,0.0169 ± 0.0041,
A18G,0.00161 ± 0.00045,0.0231 ± 0.01,,,
G26U U46G,0.000306 ± 7.3e-05,0.00888 ± 0.0026,,,
U30A G41A G60A C70U,< 1e-05,,,,
C16G U69C,5.13e-05 ± 2e-05,0.000195 ± 5.5e-05,,,
A15U G32U A33U,< 1e-05,,,,
A15U C50G C61A,0.000142 ± 3e-05,7.29e-05 ± 1.7e-05,,,
G21U C67G,9.41e-05 ± 2.8e-05,0.00119 ± 0.00023,,,0.000139 ± 4.1e-05
G26U C70U,0.000967 ± 0.00041,,0.00126 ± 0.00046,,0.000552 ± 0.0002
A28U,0.000787 ± 0.00025,0.0176 ± 0.0065,,,0.0144 ± 0.0048
G29U C71U,0.000132 ± 1.2e-05,0.00363 ± 0.00043,0.000298 ± 2.9e-05,0.000578 ± 0.0001,0.00226 ± 0.00052
G29U C71A,5.78e-05 ± 1.4e-05,0.00103 ± 0.00015,,0.000172 ± 4.8e-05,0.000288 ± 0.00011
G29U A53C C68U,< 1e-05,3.37e-05 ± 1.6e-05,,,
A15G U47A,0.000718 ± 0.00011,0.03 ± 0.0073,,,0.0116 ± 0.0042
C16A C70U,5.31e-05 ± 7.6e-06,0.0015 ± 0.00026,0.000117 ± 3.3e-05,0.000192 ± 2.7e-05,0.000365 ± 5.1e-05
U30C A33G G66U C71G,< 1e-05,< 1e-05,,,
C16U G38C A48G C50U U55G,< 1e-05,< 1e-05,,,
G29U A42C C58A C67G,< 1e-05,,,< 1e-05,< 1e-05
C16A U31C A42G G44U C70G,< 1e-05,,,,
A15U A36G,< 1e-05,< 1e-05,,< 1e-05,
G29C U65C,< 1e-05,,< 1e-05,,
C16G A36C,< 1e-05,< 1e-05,,< 1e-05,

Variant,self-cleavage kobs at 40 uM GlcN6P (glucosamine-6-phosphate [1]) [s⁻¹],self-cleavage kobs at 10000 uM GlcN6P (glucosamine-6-phosphate [2]) [s⁻¹],self-cleavage kobs at 160 uM GlcN6P (glucosamine-6-phosphate [3]) [s⁻¹],self-cleavage kobs at 640 uM GlcN6P (glucosamine-6-phosphate [4]) [s⁻¹],self-cleavage kobs at 2500 uM GlcN6P (glucosamine-6-phosphate [5]) [s⁻¹]
C16G A36G,< 1e-05,< 1e-05,< 1e-05,< 1e-05,
A15G G43U A48C,< 1e-05,,,,< 1e-05
U30A A33U C34G G37A,< 1e-05,,,,
G29U G37C A42U,< 1e-05,,,< 1e-05,< 1e-05
G29C G62U,< 1e-05,,< 1e-05,,
G29C G62A,< 1e-05,,,< 1e-05,
C16U U47C,7.47e-05 ± 1.5e-05,0.00228 ± 0.00034,,,0.00165 ± 0.00046
C16A U47C C50G G66A C67U U69G,7.74e-05 ± 2.6e-05,4.24e-05 ± 1.6e-05,,,
G29C U49G C58A,< 1e-05,,,,
G29C G40C U65C,< 1e-05,,,,
C16G C34G C50A A64G,< 1e-05,,,,
A15G U25A C50G C70U,6.43e-05 ± 1.3e-05,6.03e-05 ± 1.6e-05,,,
G26U C50G A52C U56G G66C C67U C71U,0.000243 ± 7.9e-05,0.000101 ± 2.7e-05,,0.000548 ± 0.00021,
C16U G59C,< 1e-05,< 1e-05,,< 1e-05,
U30A G60U C71U,< 1e-05,< 1e-05,,,
C16A G38A,< 1e-05,,,,
G29A A36U A39G G41U C67G,< 1e-05,,,,< 1e-05
C16U G35A,< 1e-05,,< 1e-05,< 1e-05,
C16U C61G U65G,< 1e-05,,,,
G29U G43A G63A,< 1e-05,,,,
U30A G62A,< 1e-05,< 1e-05,,< 1e-05,< 1e-05
U30A A48G,< 1e-05,,< 1e-05,< 1e-05,
C16A C61U C70A,< 1e-05,,,,
C16G G21U,0.00012 ± 5.7e-05,,,,
G29A G37U G40U U65G C68U,< 1e-05,,,,
C16G G62U,< 1e-05,< 1e-05,< 1e-05,< 1e-05,< 1e-05
